In paper PMC8260561 (Cell Reports, 2021):

Biological target: S1-mFc (SARS-CoV-2 S1 subunit, fusion protein with murine Fc part) (SARS-CoV-2 Wuhan-Hu-1 (MN908947), UniProt P0DTC2)
Experiment: ELISA

B1: STE90-C11 IgG (human IgG1 with silenced Fc) (antibody, V domains shown)
VH: QVQLVESGGGLVQPGGSLRLSCAASGLTVSSNYMSWVRQAPGKGLEWVSVIYSGGSTYYADSVKGRFTISRDDSKNTLYLQMNSLRAEDTAVYYCARDVADAFDIWGQGTMVTVSS
VL: DIVMTQSPSFLSASVGDRVTITCRASQGISSYLAWYQQKPGKAPKLLIYAASTLQSGVPSRFSGSGSGTEFTLTISSLQPEDFATYYCQQLNSYPPFTFGPGTKVDIK
  EC50: 0.2 nM
